The values that follow come from publication PMC2647743 (Bioconjugate chemistry, 2008).

One data set can be described thus: Biodistribution. As to conditions: ICR SCID, mouse, in vivo, 185 kBq, total radioactivity, tumor uptake, PC-3 tumor bearing SCID mice, 15 min post-injection.
The next data set concerns PC-3 tumor xenografts. Put plainly: Biodistribution. The note with it: PC-3 tumor bearing SCID mice; for tumor retention: initial (15 min) uptake retained in the tumor tissue: 24 hr post-injection relative to the 15 min values.

One may read the tissue uptake as the percentage of the injected dose found per gram of tissue. In the case of `CSCC[C@H](NC(=O)[C@H](CC(C)C)NC(=O)[C@H](Cc1c[nH]cn1)NC(=O)CNC(=O)[C@@H](NC(=O)[C@H](C)NC(=O)[C@H](Cc1c[nH]c2ccccc12)NC(=O)[C@H](CCC(N)=O)NC(=O)CCC(=O)NCCOCCOCCNC(=O)CN1CCN(CC(=O)O)CCN(CC(=O)O)CCN(CC(=O)O)CC1)C(C)C)C(N)=O` [In-DOTA-8-ADS-BBN(7-14)NH2], the tissue uptake at 0.25 h in “Biodistribution” came to 6.21 ± 1.57 %ID/g. Further, in the data set on PC-3 tumor xenografts, the “tumor retention: initial (15 min) uptake retained in the tumor tissue” value (“tumor retention: initial” below) worked out at 19.8%.
Turning to `CSCC[C@H](NC(=O)[C@H](CC(C)C)NC(=O)[C@H](Cc1cnc[nH]1)NC(=O)CNC(=O)[C@@H](NC(=O)[C@H](C)NC(=O)[C@H](Cc1c[nH]c2ccccc12)NC(=O)[C@H](CCC(N)=O)NC(=O)CCCCCCCNC(=O)CN1CCN(CC(=O)O)CCN(CC(=O)O)CCN(CC(=O)O)CC1)C(C)C)C(N)=O` [In-DOTA-8-AOC-BBN(7-14)NH2], the tissue uptake at 0.25 h in “Biodistribution” came out at 6.66 ± 2 %ID/g. The same compound showed a Heart with PC-3 tumor xenografts (1 hr p.i., i.v.) of 0.19 ± 0.20 %ID/g. Besides, in the data set with PC-3 tumor xenografts (4 hr p.i., i.v., n = 5), the Liver is 0.15 ± 0.02 %ID/g. In addition, the Lung in the data set with PC-3 tumor xenografts (24 hr p.i., i.v., n = 5) was found to be 0.07 ± 0.03 %ID/g. Also, in the data set on PC-3 tumor xenografts, the “tumor retention: initial” value was found to be 11.4%.
Consider `CSCC[C@H](NC(=O)[C@H](CC(C)C)NC(=O)[C@H](Cc1cnc[nH]1)NC(=O)CNC(=O)[C@@H](NC(=O)[C@H](C)NC(=O)[C@H](Cc1c[nH]c2ccccc12)NC(=O)[C@H](CCC(N)=O)NC(=O)c1ccc(NC(=O)CN2CCN(CC(=O)O)CCN(CC(=O)O)CCN(CC(=O)O)CC2)cc1)C(C)C)C(N)=O` [In-DOTA-AMBA-BBN(7-14)NH2], for which the tissue uptake at 0.25 h in “Biodistribution” was found to be 6.36 ± 1.6 %ID/g. For the same compound, in the data set with PC-3 tumor xenografts, the “tumor retention: initial” value was determined as 26.6%.
